Assay results taken from the domain aggregation screens of Martell et al. (2025).

Assay: soluble fraction after stress (log2 fold change); higher = more stays soluble; pooled small domains, quantitative proteomics
Details: stress: pH 4
Procedure, shortened: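 Pooled custom libraries of small protein domains were subjected to pH 4 and measured by high-throughput quantitative proteomics. The log2 fold change in soluble amount per domain is reported, higher values meaning more remained soluble. This is used as a measure of aggregation propensity.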

Row | Sequence | soluble fraction (log2)
1 | HMDANAYTYKVSEDTDTRTGEKIFLVKVAEKLSRKEYIVVNNYMKSLGSYYSKFKHAFLFKENPTEKL | -0.246
2 | HMELDIGKKAIVIEKIDPEAGTGRVRIEGVDWGAKTADSSVIEKGETVVVKAKGAAFVTVAK | 0.0671
3 | HMSAPGYRAVYPGMLESERQTAYELLSSSGFDVKINTSSGELEVTTDRYHEARMVMASQNIPK | -1.18
4 | HMDLPREKRIEIGLTYIYGIGLKTSQKILAATGIDPNTRVKDLDETTVSKLREYIDHNYRVEGELRS | -0.217
5 | HMAAEPDQQLIKPASDPVLRTMKIEELMKMSEQVKIQMSKAAKNFDYLEAARLRDEHFALENLIKLRS | 0.156
6 | HMKIETVENPLLERTEISALFDSKSGSLTRKEAIDLISKKARIDSSTVYAIKLSNSSGSTRIIGLFY | 0.00271
7 | HMVSDTGAIEAIVAQVLADNPKLVEGYLATPEDKRGKAIGPFIGLTRKAAAGVNPQVVMDVLKKKLSEL | -0.733
8 | HMKQYVEPASETEKMVVELWEKVLLTEKIGMHDDFFELGGHSLKAMRLISLYHQEFNVRLSLKSLFEKLK | -1.07
9 | HMDGRVQATAEKLRAALDRLARSSVGSPMIERQLTVAALAREARVGRNAIYANHRDILDELIRVRQQRRA | -0.309
10 | HMSKQIEVPDVTDMTVSDAIDVLQDKGFVVSDEQKEVASSEIEEGRVVRTSPAVGSKRKDGTVVTLYVSI | -0.479
11 | HMASPKEALWRSLAEEPDTWWDNRERKSQPGANPRSPDFKHKESGEALWIESRDTPTWVLETL | -1.5
12 | HMPPPVERAIRKLGHDLSLARRRRRISQDSMAQRMGASVSTVRRIEKGDPRIPIHFIARAMMILGDLKAL | -0.105
13 | HMHPRDREENKYLLLRGERIYEESIGEKRLYVEAALHKYEKALSSYDTGLIDEAKEEFKKFLEEIEEA | -0.438
14 | HMSYQFKIKNNAAVEVTVSEKNNLLGSTYGDKATVAAGMEKNVTFYTDKPDVVVDTNGNFTITVHDKEIII | -0.221
15 | HMDYGSISFINWSIEVLSVIKTRLDRGDKIIDEVSGEKYTASSFEKFVRKNFSSYIFSQVYAEDHKK | -0.016
16 | HMKEFSFNGGKVIMNYEADRIQIKHDSRPNQEVITLMKRNGFKWSPTNQAWQRQITGNAIYVTKNLLKS | -0.0347
17 | HMITDNEFLRIVSFLKQRYGIDMSQKKVIMNGRLENYLKSGGWSSFDEYMNDVEKDTSGDLEKTLVNFLTT | -0.853
18 | HMENKIIKNAAHATLKVKKDAGIEITTELIREAVILFHRIYSPNDNPNINWERIINELESHYT | -0.993
19 | HMEKVLPFEFERKFKTNHTAWDFFSNQAPPSYRKTVIHWILSAKQEITRISRLEKLIAASEQQKRI | -0.31
20 | HMKEIDVPNVVGASENAARKLLESYGFQVEVQWENGERVDNAVVKSYSPNGSAKSGSTVTIVLGT | -0.293
21 | HMKRTKLEEATEWLRDRLSDGVKYNGEELLREGESADMARRTLRRAAQELGVIIERERGARGRWFWSLP | 0.254
22 | HMGRGSEDEQMRGLAVILAEQKQIMQTLGVENEVVKPEQYINTLKRMAELNGFKDTDQFFSIPQ | -0.587
23 | HMDDISLEEIKYISSKLETKVNEIEELLVRYYDGETNEAEEKELKEFFAQADVPAHLLAEKRLFMQLASQ | -0.324
24 | HMNLDPIKRKSEILSLFESHKNVKFNEIFFEKVNKEFTVLTFLIILELVKDNIIDFSQTQEGLIEFFTR | 0.204
25 | HMKPSNRSYPTALRMEVIGIIRERYADFGPTLAGEKLAELHGIHLGRETIRQWMMAAGLWKDRR | -0.759

Row | Sequence | soluble fraction (log2)
26 | HMDLPATVPNLEGLTEVTARNKLTVAGLSLGEVKEVESDKEKGTVVGQSIAYGKRVTKGTKVDIEISSGK | 0.318
27 | HMEVSKETFPAYVAVDSLPVYKSASTSSSKVTTIDFGREVTVVETRGGWAKIQYGSYKGFAEIEGMSKN | -0.0269
28 | HMDIKEIIKNRRIELGLTLKEVATAVGVSEGTVSRWESGNITNMKRNKIAALAKTLQIPPTTI | 0.0875
29 | HMVGEPEPIRYSRFLDEMKSGKLDSVVIQGDTILGVRKDKSQFKTVNPETDYSALIGALDKAGVGIEGRA | 0.149
30 | HMQVTEVDYGTFMKMVEEKNVGEVEVGNSMIVFTDKDGKAIYKTGAMNDPNLTERLYNAGASFTKE | -0.209
31 | HMSSAVKRALAELPENWRMIVYYRVVEGLSYAEIAKVLDIPDGSVMSGLHRGKKMLRGLLLEYAQQEGYD | -0.74
32 | HMFYNELMNFIVYKDSQKIGKIVNINDKLPQPVFEVLINDKKFMVPIHDDFIEKIDKEKKSIHIVIPDGLL | -1.01
33 | HMVVRRLPFGFSKRFGVLVVPGTSNPVELLYREDASMQSLLEARRVVAQPVAFKKTDVESFNAQLARAHEN | -0.122
34 | HMKHTVSVDRLQPGVFVSLGGLSWLDHPFLLNRFRLTDHDQIKVLRSLGVKEIEWDPTRSTAQPLPE | -0.724
35 | HMDDPISSMVNRIRLAFGLSVTDLAAVLGVERPTIYSWLKDGSTPAPARLTRVRQVLSLADTW | ≥ 0.43
36 | HMFVTFFHELKSAGVPVSLREYLTLMEAMDRDLASRRVEEFYYLARTALVKDERNLDKFDRVFGHVFKGL | -1.69
37 | HMGAVFEFIMEEEEPERIDKLLSSALPDLSRSYLQKLVKEGAVLVNKKEVKPNHKVNPGDVVEISVPEPE | -0.744
38 | HMQNAMQKELIDAFQKAYPDLDITKIELVYGTYYEVEAMNSTTEFTYRYDQNSKTFILAEQDNADP | -0.0395
39 | HMAPSLQISLKQAIITAQQQHPGSKALNADFDGARGTPRYVIETLLPTGELRELTIDAQSGQVMEDHPDR | 0.198
40 | HMVMRHTVEHDAELLAVLRLMYPASSSTKLRKMLTQGRVLVNDDVVHRAKHGVASGDTVDVIVRQRAE | 0.0827
41 | HMVAMGQRVVPLTHLSIDDVRRLLESTYGKDSGIEVTKPGTAAKGVIVTAPRTELDGIVALVKQA | 0.0822
42 | HMGGASVTDQQIRDFVSAHTDDPMAIYKAAVANGISSARLAQVTGISIADIEAFVRKNNLPSF | -0.206
43 | HMILESREKYLGEVLEVLVEEEKEGEYFGYSQNYLRVKFKLEEKNLINQLINIKIKSIEDDILIGEKEN | -2.36
44 | HMVKFGERVKQLRLSAGMTQEQLAERIWVTKAAISNYELSERNPSPETIIKIAGVFGVTTDYLLGLED | -0.434
45 | HMLIELKIPSEWAGKSLHTLNLRQNYNVNVIGFRDEKSGKLNTHFDPSKKLPDEGIILVVADNRTLEKF | -0.451
46 | HMNMEPNWLKWAKQLAALAQNGLTYSDNPYEIERYEHIRRIAAEMMAEGFELDTKTILELFPREKG | -1.41
47 | HMTMKVTADILNMRSEASTNSDIVTKLKKDDELKVIEETKDDDGVTWVKVDFNGQVGFVSKEFLG | -0.623
48 | HMSEQLHALIDRLDDIPDDELKKNWPGTLRDLVDVISAELHRQGIEPAQAGMLARKVAAAQAGYMG | -0.742
49 | HMVTDSGEIEKLVDEVIDNNPDQVQQFREGKQQVLSYLVGQAMKLSRGKANPNQVNQFLRDKL | 0.152
50 | HMEPADALVAALVARGVSPSTARITVKQYPATRIQPQLEVFDYLVAQKDPKVSRNPPGFLLSAIRGEYA | 0.0562

Row | Sequence | soluble fraction (log2)
51 | HMLPNLWVMGPGDHLWRVAEVAMTKHLGRPVANHEIDGYWRRLVALNRESLIDPDNPDLVFAGQVIELPPF | -2.2
52 | HMGPRKAGSEATRQKILDAAEILFAERGFHSVSVRDITTEAGVDVALINYHFGSKQLLFETVFMRR | -0.472
53 | HMGYDDLEPFDANGRLRWSDQELVLAFGRHRGATLRTLELNDPSYLRWLLSGNGPLEQQDIQRLEQILES | -1.44
54 | HMIELTTDYKKRVVEALVSARENYSGSDSDFARKWSIDKTVYSRLKKGYQEGLLSVGKYIELGMELNVSSR | 0.0127
55 | HMTDAEQHEALLFKQVVDGLPQTLRDTFVLSRHAGMTYAEISAHTGTPIKTVESRMAKALELIAQRMR | 0.0158
56 | HMSFNSQENKSVLWQFLLENNFFIGLSDKKFNKVKDIFEKNIQSISIVNDSISNKNKILIQKMMEELELL | -1.46
57 | HMPELPPHELLRALMVEHDIKQSELPEVGPQPVVSDVLAGKRALNLRQVAALAARFHVPMEVFT | -0.015
58 | HMVNSADLAAKPFIDLLVSTRQQLREAKQYDLADTIRDELTNHGITIEDKPQGSEWQYEFNPNS | -0.499
59 | HMSSWMTKDGKIKPISKWAGVPMTSQQQADYAAGKVVELTNIPDKQGQLNTVYLKFNPEKQRPTTSLNDPR | 0.22
60 | HMDGKTALQEIVASSGWSPPEYKVSESGPDHDKDFVAYAIVNGVAYPEGHGKSKREAEQVAARIAFEALSK | -0.00195
61 | HMDINEIILKVASEKKTFKTSDVLEALDNNYTKQHVSALISAMVKKGILVKAGSTAKSTYALPENASLL | 0.0858
62 | HMENTIPSVIGRTLSDGVFLLESYGYVKGNVSEEFSEMPIGVIIRQFPGAGSAAEAGTRVDLVVSKGEEIV | -0.316
63 | HMGGELLSLRRIGTLTGISYPTLLRYVARYGEQIPQTGTGRSRRFPPAAVPVFQELRATRGRAPRATA | 0.0768
64 | HMEDVTLSLVVGEDLDGERLDVFLTWKLDRTRSQVQALIRDGKVRLEQGQRARPSMVVRSGMGISVSLEPR | -1.11
65 | HMGMNKEHFIIELKIYLKALNPKDQAIILAKYKALFDARVAEGETEEQVAKSLGKPRVIAEEILKEQGIE | ≥ 0.43
66 | HMDKSRPVLRVGDSGDWVSKLQTALLEFGYRVAVDGVFGEHTKSAVVHFQNGRRLIADGVVGNLTWDALL | -0.968
67 | HMLDIQKKGENIAYIEGAGDVIPESLKQIGYHVVTIAPKDINAETLSRFDAVVVGIRAYNTVEDL | -0.241
68 | HMNHHEIIMKNIDTLLKEKNISISKLEKSLGISNGYISRLRNGKYNFSLDLLLKLAKKFKISIDYLLTDFD | -0.119
69 | HMPVSVAEQKQILAEALQERGHATFRELIENADNRMIVVGRFLALLELYRDGTVRFEQERALGELTIHWEE | -1.22
70 | HMGAGLKIGNDHEYANYLEYKVSVEKYAPGAILGEIKQKGIQFNTTISKTTFYRYITDGVFLTITNADLPV | -0.138
71 | HMPDYYAILEVERTADAKTIKAAYRKLALAYHPDRNPGDQAAEERFKQINEAYAVLSDPEKRARYDRYGSV | 0.139
72 | HMVTDTGEIEAIIDRVISENPDSVSDFKNGKERALKFLMGQAMKESKGKANPQIVNELLLKKL | 0.0343
73 | HMNMVSGHLQIKKGYYYVVLSYYDNRNKRHVKYVSTGLPEKGNKRKAEAALARVRSEFEPPQE | 0.353
74 | HMELLSVPSRLGTFFLGGEAGHIIRLYLPGDPTPRIAEHETPVLSEARRQLLEYLAGRRTAFSFPL | -0.223
75 | HMSIQDLMNSKDLSGFKVEMLSNEDIVKYKSMLQSSGFSESQAEQLALQRGLPTSELIKLRTRISDVAVT | 0.17
